Test results as given in the supplement of paper PMC9170038.

Test system: MS2 coat protein
Assay: apparent KD of MS2 coat protein; designed switch direction (-1 OFF switch, 1 ON switch): 1; higher = weaker reporter binding
Method in brief: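 For each design, the apparent KD is the median over clusters of curves fitted to normalised cluster fluorescence. Clusters held RNA switches with common flanks, transcribed on Illumina chips by stalled E. coli RNA polymerase. These were titrated with SNAP-549-labelled MS2 coat protein, doubling from 0.7 or 1.5 nM to 3 µM, without input, with 200 uM small-molecule ligand, or with an oligonucleotide input.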

[1] = input ligand: microRNA oligo, concentration not stated
[2] = Eterna round: R95, input ligand: FMN 200 uM
[3] = Eterna round: R95, input ligand: microRNA oligo, concentration not stated
[4] = Eterna round: R95, input ligand: none

| Sequence | apparent KD of MS2 coat protein [1] | apparent KD of MS2 coat protein (input ligand: FMN 200 uM) | apparent KD of MS2 coat protein (input ligand: none) | apparent KD of MS2 coat protein [2] | apparent KD of MS2 coat protein [3] | apparent KD of MS2 coat protein [4] |
| --- | --- | --- | --- | --- | --- | --- |
| UUAGAAUUGCAAGGAUAUCUAAUUUAGAUAGUAAGAGAAGGUGCUUUAUAGUUACAUGAGGAUCACCCAUGUUUUUUUGUUUAU [JR_SSNG1_Sub059] (Eterna round: R96, puzzle: Same State NG 1) | 26.5 nM | – | – | – | – | – |
| UUAUCAUUGCAAGGAUAUUGAUUACAUGAGGAUCACCCAUGUUAAUGAACACUAUGUACUACUAACAAGAAGGUGCUAUAAAUU [JR_SSNG2_Sub041] (Eterna round: R96, puzzle: Same State NG 2) | 28 nM | 35.1 nM | 34.3 nM | – | – | – |
| UUAUUAUUUACAUGAGGAUCACCCAUGUUUUUAUGUCAGAGAUAGGAUAUAGAAGUCUCGUUUUACUAGAAGGAUCUUUUUAUU [JR_SSNG3_Sub083] (Eterna round: R96, puzzle: Same State NG 3) | 16.7 nM | 21.2 nM | 22.8 nM | – | – | – |
| UUCCCAGCGGGAGGAUAUGGUGCCUUGUUGGUGCUAGAAGGUCCAACAUGAGGAUCACCCAUGUGGGAGUGGUCGAGAGACCUC [SS NG10LRO10] (Eterna round: R96, puzzle: Same State NG 1) | 238 nM | 307 nM | 427 nM | – | – | – |
| UUCGAGUUGCAAGGAUAUCUUAUUUAGAUUUUAAGAGAAGGUGCUUCACAGCUACAUGAGGAUCACCCAUGUCUUUCUUCUUAU [JR_SSNG1_Sub064] (Eterna round: R96, puzzle: Same State NG 1) | 22.6 nM | – | – | – | – | – |
| UUCUGACAUGAGGAUCACCCAUGUGAGACAUAUGGAGAAUCUCAGGAUAUCCUGAGGAUCACCCAGGAGAAGGGAGAUCCGACC (Eterna round: R96, puzzle: Same State NG 3) | 43.7 nM | 32 nM | 45.7 nM | – | – | – |
| UUGAAGAAUUAAGGAUAUCGAGUACAUAUGUUAAACAUGAGGAUCACCCAUGUGGGUUGCGGUAUCGAGAAGGUAAAUUACAAG [JL SSNG2 1.42] (Eterna round: R96, puzzle: Same State NG 2) | 25.6 nM | 30.2 nM | 36.5 nM | – | – | – |
| UUGAAGAAUUAAGGAUAUCGAGUCAAGAUGUUAAACAUGAGGAUCACCCAUGUGGGUUGCGGUAUCGAGAAGGUAAAUAAGAAG [Mat - Same State NG 2 - JL mod - D54] (Eterna round: R96, puzzle: Same State NG 2) | 29.6 nM | 44.3 nM | 44.8 nM | – | – | – |
| UUGAAGAAUUAAGGAUAUCGAGUCAAGAUGUUAAACAUGAGGAUCACCCAUGUGGGUUGCGGUAUCGAGAAGGUAAAUUACAAG [JL SSNG2 1.41] (Eterna round: R96, puzzle: Same State NG 2) | 26.9 nM | 34.8 nM | 34.9 nM | – | – | – |
| UUGAAGAAUUAAGGAUAUCGAGUCGUCUAAUUAAACAUGAGGAUCACCCAUGUGGGUUGCGGUAUCGAGAAGGUAAAUUACUAA [JL JR Sub099 mod 1] (Eterna round: R96, puzzle: Same State NG 2) | 20.6 nM | 14.3 nM | 32.2 nM | – | – | – |
| UUGAAGAAUUAAGGAUAUCGAGUCGUCUAAUUAAACAUGAGGAUCACCCAUGUGGGUUGUGGUAUCGAGAAGGUAAAUUACUAA [JR_SSNG2_Sub099] (Eterna round: R96, puzzle: Same State NG 2) | 65.3 nM | 74.4 nM | 95.1 nM | – | – | – |
| UUGAAGAAUUAAGGAUAUUGAAUACAUAUGUUUAACAUGAGGAUCACCCAUGUGGGUUGCGGUGUCGAGAAGGUAAAUUAAUAG [Mat - same State NG 2 - JL mod - D94] (Eterna round: R96, puzzle: Same State NG 2) | 191 nM | 221 nM | 291 nM | – | – | – |
| UUGAAGAAUUAAGGAUAUUGAUUACAUAUGUAUAACAUGAGGAUCACCCAUGUGGGUUGCGGUAUCGAGAAGGUAAAUUACUAG [Mat - same State NG 2 - JL mod - D75] (Eterna round: R96, puzzle: Same State NG 2) | 98.5 nM | 145 nM | 98.2 nM | – | – | – |
| UUGAGGUGUCAAGGAUAUGCUACCGUUUCGGUAGCAGAAGGUGAUCACAUGAGGAUCACCCAUGUAUGCAUGCGUGAGCGUGCU [JL SSNG1 3.61] (Eterna round: R96, puzzle: Same State NG 1) | 23.4 nM | – | – | – | – | – |
| UUGAUGAAUUAAGGAUAUCGAGUCGUCUAAUUAAACAUGAGGAUCACCCAUGUGGGUUGUGGUAUCGAGAAGGUAAAUUACUUA [JR_SSNG2_Sub098] (Eterna round: R96, puzzle: Same State NG 2) | 67.5 nM | 66.2 nM | 92.6 nM | – | – | – |
| UUGUUUGGUAAAAUACAUGAGGAUCACCCAUGUUAUGGUGCAGAGGAUAUGCAUGUUUGAUUGAAGCAGAAGGCUGUAAGUUGU [JR_SSNG3_Sub036] (Eterna round: R96, puzzle: Same State NG 3) | 35.5 nM | 35.7 nM | 43.7 nM | – | – | – |
| UUGUUUUGAAAUUUACAUGAGGAUCACCCAUGUCGUGAGACAGAGGAUAUACAGGAAUGUAGGUAGUAGAAGGCUGUUUUGUGU [JR_SSNG3_Sub100] (Eterna round: R96, puzzle: Same State NG 3) | 97.6 nM | 49.5 nM | 123 nM | – | – | – |
| UUGUUUUGUAAUUAACAUGAGGAUCACCCAUGUCUUGGCUCAGAGGAUAUACAUGUUUGUUUGUAGUAGAAGGCUGUUUGUUGU [JR_SSNG3_Sub095] (Eterna round: R96, puzzle: Same State NG 3) | 107 nM | 94.7 nM | 131 nM | – | – | – |
| UUUAAACAUGAGGAUCACCCAUGUUUUUUCAUGGGAGGAUAUCUAAGUUAAUUAUAUUAAGGAGAAGGCCUAUUUU [× ×•×ª×• ×ž×“×™× ×” × ×—×ª-05] (puzzle: Same State 1) | – | – | – | 111 nM | 48.8 nM | 53.1 nM |
| UUUAAACAUGAGGAUCACCCAUGUUUUUUCAUGGGAGGAUAUCUGAGUUAAUUAUAUUAAGGAGAAGGCCUAUUUU [× ×•×ª×• ×ž×“×™× ×” × ×—×ª-01] (puzzle: Same State 1) | – | – | – | 102 nM | 38.6 nM | 75.9 nM |
| UUUAAACAUGAGGAUCACCCAUGUUUUUUUAUGGGAGGAUAUCUAAGUUAAUUAUAUUAAGGAGAAGGCCUAUUUU (Eterna round: R96, puzzle: Same State 1) | 136 nM | 28.1 nM | 145 nM | – | – | – |
| UUUAAACAUGAGGAUCACCCAUGUUUUUUUAUGGGAGGAUAUCUAAGUUAAUUAUAUUAAGGAGAAGGCCUAUUUU [× ×•×ª×• ×ž×“×™× ×” × ×—×ª-04] (puzzle: Same State 1) | – | – | – | – | 124 nM | – |
| UUUAGAUUCAGAGGAUAUUGAUGUUGUAAGUAACAAGAAGGCUGAAUGGUUAGAAUUGUUUAUUAACAUGAGGAUCACCCAUGU [JR_SSNG1_Sub009] (Eterna round: R96, puzzle: Same State NG 1) | 17.1 nM | 17 nM | 20.8 nM | – | – | – |
| UUUAGCGUUACAGGAUAUGGUGAGGAUCACCCACUAGAAGGGUAAACAUGUGCGUCGGACAUGAGGAUCACCCAUGUAGGGCGU (Eterna round: R96, puzzle: Same State NG 1) | 22.2 nM | 16.5 nM | 35.2 nM | – | – | – |
| UUUAGUUGCGGGCAGGAUAUGUAUUAAAAUACAUGAGGAUCACCCAUGUGCGGGUAUAACACCCGAUAGAAGGGCCAAUCGCGAC [Laonerce - 11] (puzzle: Same State 2) | – | – | – | 20.9 nM | 53.6 nM | 71.9 nM |
| UUUCUCAUGUAAGGAUAUGCAGCCGUUUCGGCUGCAGAAGGUACUAUAAUACAUGAGGAUCACCCAUGUCUCUAUUAUUUAGUU [JL SSNG1 1.44] (Eterna round: R96, puzzle: Same State NG 1) | 39.9 nM | 84.7 nM | 47.1 nM | – | – | – |
| UUUCUCAUGUAAGGAUAUGCAGCCGUUUCGGCUGCAGAAGGUACUAUAAUACAUGAGGAUCACCCAUGUCUCUCGCAUUGCGAG [JL SSNG1 1.48] (Eterna round: R96, puzzle: Same State NG 1) | 28.9 nM | 263 nM | 62 nM | – | – | – |
| UUUGCAUGACGAGGAUAUCAUUUAUAUCUUGAUUGAGAAGGCGUUCUUUUUUUUACCUAACAUGAGGAUCACCCAUGUGACAGU [JR_SSNG1_Sub050] (Eterna round: R96, puzzle: Same State NG 1) | 13.4 nM | 14.1 nM | 16.1 nM | – | – | – |
